Measurements published in PMC8906540 (RNA, 2022).

Molecular target: the molecule itself
Test: SEC

B1: YloC protein of Bacillus subtilis, purified, 8×His-Sumo tag removed (enzyme, UniProt O34441 1-291, looked up)
chain: MIRSMTGFGSASKTQDDLSVSVELKSVNYRFKEVNARLPRPLLYFEDKLKQTILQHIQRGRIELFVSVDSDMLVEKRLEIDWPLLDEFVAAARDMKKRYQLSAEPDVMDFFKLDHVVQVHEEQTQNDKLEALIIDAAEEAVKGLCEMREKEGLLLAKDCLMHIDQLEELVRETELLAADVVSRYRERLYARIKEWTEDVLDESRLVTECAIFADRSDITEEITRLKSHFAQFRDILASGGAVGRKLDFLVQELNREANTIGSKANDHQITKLVVEMKSSIEKIKEQVQNIE
For B1, the “stoichiometry N” value was roughly 6.
